Tests used:
[1] = tested on: T1, truncated GST-fusion T-bet protein, C-terminal fragment
T1 sequence (Q9UL17 whole entry, species assumed, looked up): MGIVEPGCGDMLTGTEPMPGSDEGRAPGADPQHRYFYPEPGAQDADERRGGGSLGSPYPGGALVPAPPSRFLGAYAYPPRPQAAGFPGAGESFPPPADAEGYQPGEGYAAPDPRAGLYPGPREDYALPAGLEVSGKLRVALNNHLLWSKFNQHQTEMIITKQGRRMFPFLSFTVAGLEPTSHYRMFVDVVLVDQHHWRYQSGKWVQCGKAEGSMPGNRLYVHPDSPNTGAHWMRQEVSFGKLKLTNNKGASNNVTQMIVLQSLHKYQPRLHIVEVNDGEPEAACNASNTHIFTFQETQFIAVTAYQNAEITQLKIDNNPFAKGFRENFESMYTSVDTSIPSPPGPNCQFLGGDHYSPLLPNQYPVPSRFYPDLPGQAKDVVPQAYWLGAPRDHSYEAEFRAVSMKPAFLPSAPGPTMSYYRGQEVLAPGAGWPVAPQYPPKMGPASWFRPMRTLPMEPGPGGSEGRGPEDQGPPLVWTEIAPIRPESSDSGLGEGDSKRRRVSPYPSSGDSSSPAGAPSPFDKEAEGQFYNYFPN

[2] = tested on: T2, truncated GST-fusion T-bet protein, N-terminal fragment
T2 sequence (Q9UL17 whole entry, species assumed, looked up): T1 sequence (Q9UL17 whole entry, species assumed, looked up)

Substance: RLK-MYC (resting lymphocyte kinase, MYC-tagged)
- in vitro kinase assay (32P-ATP, autoradiography) [1]: both the N and C terminal fragments but not the DNA binding domain, could be phosphorylated by the Tec kinases, ITK and RLK
- in vitro kinase assay (32P-ATP, autoradiography) [2]: both the N and C terminal fragments but not the DNA binding domain, could be phosphorylated by the Tec kinases, ITK and RLK

— patent US20060223116
